According to the DeepSol protein solubility set:

test: soluble on expression in E. coli; label from the status in PepcDB or PDB records

Sequence | soluble on expression in E. coli
MKQRDSLDEKRRQLTYFTSCNAGTCQCRGFRPVLNHEDETVERRATRAERENDFAPMTRDLETLGSEEIIECRTCGHSISFHAEPLKYLSQEDLDTYTDQISDLQTCCSELSEIDPSHESLQTLYITMQILLKSLRTLTPVDVPFIGKPNFEPESLSPYILVKKFIASRPVDNAEKQRLAEIGTLFLTEMNHWKLEGFQSLADKLNVPLEQGKYRMMYVRMDYYVNMPAKYVSFKQFQTVDIFGEKFTTTFCNYLINVLNTGNYTPFGLSESDLEENSEDLITFATDLRRYLETEDPQSTSTTNRRKDSISTEDVILKYVKRKKPTDHSESSSPRELSTSPVEEPRRRKKEPSSSAKKSPETEESMALLRSLIRAIKFEGDLDAMEPKTKVEFEALNTEVSRGLSALQEEESGLIEFRVIGNDLDPFQHHEQLVHLVELQNLFGAQLPKMPKEYVTRLIFDSRHQNMVILKRDMGVIGGICFRTFPSRGFVEIVFCAITAMEQVKGYGTHLMNHCKDYMIKNKIYHMLTYADEFAIGYFTKQGFSEKLEINDTVYQGWIKEYEGATLMGCHLHPQISYTKFPDFSKGIQALHCGYKSENGAESRGKVFGGLEHLFRESSPQLLELRKVPGTDSLKMHKKSCYHLDERDDSLDSKIGAILKKLTADKNAWPFASPVDVKEVPEYYDHIKHPIDFKTMQEKLKRKAYTHQHLFIADLNRLFQNCYVFNGAEAVYYKYGYKLNELALKLLKTSFPESSWYPELPEQKPLC | not soluble
MAHHHHHHMGNTVPYNCYERWGKRTPDGPLLNYDPQMPNSGTLSVLLENFDYESTEESNNKCEYIINKEPIEKNNNMNPKVIRNARRRPTYSPTARKINIQSDDEEEDEDDDEKLSTDDSDENISAKDIKDEKIQQYRKTLTKIVKIKTAIFHETVKVTCSKDGKMLEWYKGKNDSDGKKKPIGSFPLNKITSIRTKVDNLKSLEISVSSVHISTYLFTFKTREERESWQNNLESFRKIMSMK | not soluble
MALHTVLIILSLLPMLEAQNPEHANFTIGEPITNETLSWLSDKWFFMGAAFRKLEYRQAIQTMQSEFFYLTTNLINDTIELRESQTIGDQCVYNSTHLGFQRENGTFSKYEGGVETFAHLIVLRKHGAFMLAFDLKDEKKRGLSLYAKRPDITPELQEVFQKAVTHVGMDESEIIFVDWKKDRCGQQEKKQLELGKETKKDPEEGQA | soluble
MGSDKIHHHHHHMIILVGGEKGGSGKSCLAQNIAVFLTNEVQASVIMVDCDPQRTTSDWIQARNNNPKLPAINCVQLYGKIRNDLLSLEQHYDYVVVDCGGQDNLALRATMSVASYVLMPLRPKRRDLKTVSHMDDIVSTCLMINPKMKASFVITQCPSLPNQASRITEAKDVCRTYDINVLDAVNYCRNIYDDSEESGLSVFELEPQGKAADEMRSIACELLDITDAKQLIEQRNTASNVTPMRGNYGTSRSQEKRFVM | not soluble
MSTSQPREQFLLISALGPNPMELTTLLCRACVESRCAVVSSRLTRHGEFSALVLQISGSWDALARLEGSLPALTKRGDITLSMTRSNAHVTRAQALPYVAYVSAVYRPDILNELCQFFIDHNIELENLTCDTYQAPHTNTTMLNATITVTLPAGTQISWLRDQFLDFADALNLDALIEPWRPQHP | not soluble
DDHSRALGRTTVNSNLGQGQVSGAESGAKTAEPAWIDFMQVALEGKPEQGKNIPDDIVRVRIDRNSGLLTHKVDSTSMFEYFEKGTEPTEYVGNSLEDSIYSSGSGGTTEELF | not soluble
MGSDKIHHHHHHMELVQFGCEDWLNVWEKSATIDIAQSTIDSLSLEEVLAFEEDNGEAFMSQMMKEKFSYGWIEGSPAFKSEVAKLYKRVPEDNILSTNGATGANFLTILGLIGQGDHVIAQYPSYQQLYDWPKTLGAQVDYWHIKEENNWLPQIEELRRLVKSNTKLICLNNAAQPTGAIMSPKFLSEVVEIARSVDAYILCDEVYLPLDEETPYSPIADLYEKGISTNSISKTYSVPGIRVGWVATQDRDLCNEFRKIRDYTLICTGVFDDAVAALVLKHKDKVLERARKIVKGNLSILKEWVENEPLVSMVYPNAVSVSFVKFEELDPTKTEDFAIQLLREKGVLIIPGNRFDLSGYARIGYCTDETTLRQGLKLLSEFLREYQV | not soluble
MSLGDLPLGWHKLHLKSNERSAECGLIITPARLSTADKYLDSPRSGVMAQIYSVRSTLSWGMGDFNDLGNLASVVAQDGADFLLINPMHAAEPLPPTEDSPYLPTTRRFINPIYIRVEDIPEFNQLEIDLRDDIAEMAAEFRERNLTSDIIERNDVYAAKLQVLRAIFEMPRSSEREANFVSFVQREGQGLIDFATWCADRETAQSESVHGTEPDRDELTMFYMWLQWLCDEQLAAAQKRAVDAGMSIGIMADLAVGVHPGGADAQNLSHVLAPDASVGAPPDGYNQQGQDWSQPPWHPVRLAEEGYIPWRNLLRTVLRHSGGIRVDHVLGLFRLFVMPRMQSPATGTYIRFDHNALVGILALEAELAGAVVIGEDLGTFEPWVQDALAQRGIMGTSILWFEHSPSQPGPRRQEEYRPLALTTVTTHDLPPTAGYLEGEHIALRERLGVLNTDPAAELAEDLQWQAEILDVAASANALPAREYVGLERDQRGELAELLEGLHTFVAKTPSALTCVCLVDMVGEKRAQNQPGTTRDMYPNWCIPLCDSEGNSVLIESLRENELYHRVAKASKRDEGHHHHHH | not soluble
MADNKITFFGKCDGISVEQLIRYSRFNMNVKHFHNQYEIFYIIEGERQFFFDNKSYNAYAGDIAILDTNLVHTTCSISDEDKGYNRVILYIDYEKMCDFDKKYPGLNLVNYFHNNYGIYHLNEDQRIAFLNLYRDLRHELTKKNSGYQSRVEIATIYWLYKLLSLKHDSTQIHAVINSPKE | not soluble
MGSDKIHHHHHHMRISLSTGTLFTFPLGKVMRIAREAGFDGVELIINQDFQKVNCRKLIEELAEILPINSIHAPFMPLDGWGGPIDSLERCVELAAGAGIPLVNFHPPSWMGFEIGFWRWLYRVMDFQKEVGRETVIVTLENMPWVGTRFRVNPHILSNTEKLIEFIQERNLYMTFDTTHMGSGKANFINDFYHCYNSGRIRNIHFSDYGHGREHLIPGHGILPLTRFLNHLRSTDYADTLTLELSPEEFPRDERIIVESLREILQYLRRETSPA | not soluble
CSDLPEIQNGWKTTSHTELVRGARITYQCDPGYDIVGSDTLTCQWDLSWSSDPPFCEKTEE | soluble
MDPYQQGGRGGGFPARGGRGGGHGGGYPQEGYGAAAGGYGGYDPYNPYGAAGGYGMYPGQGYPPQEMTSPLDAEIQAVLREIHLEVTGLETSGDQFRNARRLLNSEKERLENNIDPEWLEVDVAKPVKVCKKILVPIYRHPNFNFIGKVLGPKGATLQTLCKTHKCHIYILGRGSTKDREKEAELLASGDPQHAHFSGPLHVKVETVAPAYIAYGRVAAVIEELSRILQPIHEDTTPAHLKNGSGDGEEKEDEEKKEGGEGGGRGGRGGRGGFRGGFRGGRGGFGGPGGPMGGRGGMGGMGGRGRGGQAAGFRPY | not soluble
MCDTLILRHQGQTWFAKNSDREPAEPQRLLRLPAVRNDPEARLRTTYLDIPQTAQRHALVISQPSWIWGAEMGVNEHGVAIGNEAVFTKLTRQRGTALLGMDLLRLGLERGASAREALEVITGLLQRYGQGGPAGYRDKRIRYDNSFLIADPGEAWVLETAGNLWAAKKVERWAISNALTLGHEFDLCSRDLEDQARRQGCWDGRGDFHFARVFDTRLLPWVGGAHRRCRINQRFLDSLPGEPDWHALFAALRHHGPRGDHFRRHNNRQVCMHAGSFWRPSQTTASLVARLRDDGPLLAATGTSAPCLGLFQPLSFDPASGAAVLSQPREAVQESPWWRFEAVHRRALTDRAFRRLLRSGRDWLERELFADLEQPDWPRLAEDAAAWHACWHDQVAMQPLAQQRWWRSHAALAAALEHHHHHH | not soluble
MAKASSSFVCQNCGAAFNRWQGKCEACGEWNTLVEEAGDNAVPVSIRAKRRGRTFKLESLAGKSNDAPRLPSGMAELDRVTGGGFVRGSVLLVGGDPGIGKSTLLTQATSLMAKAGHRTVYISGEEAIAQVRLRAERLGLASAPVELAAETSVEDIVATLSEGATPKLIVIDSIQTMWTDTVESAPGTVTQVRASAQALIRFAKKTGAAIILVGHVTKDGQIAGPRVVEHMVDAVLSFEGEGSQQFRILRSVKNRFGPTDEIGVFEMTGLGLREVSNPSELFLSERDLGSPGTAVFAGIEGTRPVLVELQALVAPSTLGTPRRAVVGWDSARLSMVLAVLEAHCGVKLSGYDVYFNVAGGLRINEPAADLAAAAALVSSLANAPLPTDAVYFGEISLSGAVRPVAQTPARLKEAAKLGFARAVLPEQTRGEAPADAGLALQSVGGLSSLVADIAARGTRRGDDDGAPRTKAASNATPARFRRQEALEHHHHHH | soluble
MRYLIATAVLVAVVLVGWPAAGAPPSCAGLGGTVQAGQICHVHASGPKYMLDMTFPVDYPDQQALTDYITQNRDGFVNVAQGSPLRDQPYQMDATSEQHSSGQPPQATRSVVLKFFQDLGGAHPSTWYKAFNYNLATSQPITFDTLFVPGTTPLDSIYPIVQRELARQTGFGAAILPSTGLDPAHYQNFAITDDSLIFYFAQGELLPSFVGACQAQVPRSAIPPLAI | soluble
GPGSMEPNFFNNSGLMLLCKDGSAVRAIDVLKDAEYVLMYFSAHWCPPCRTFTPMLKSFYETHHAKKKFEVVFMSSDRSEEEMMSYFRESHGDYYCLPYADARSMARVWGDTYKFKTIPTLLVFENANPRKLIARCGREMVIKDPLGNLFPWPDADAQQPAESFIFDYTRKAAIVLGISVLLYSLISRSL | not soluble
MPLEAGLLEILACPACHAPLEERDAELICTGQDCGLAYPVRDGIPVLLVDEARRPEAAALEHHHHHH | not soluble
IKELKMSKDEIKREYKEMEGSPEIKSKRRQFHQEIQSRNMRENVKRSSVVVAAATHIAIGILYKRGETPLPLVTFKYTDAQVQTVRKIAEEEGVPILQRIPLARALYWDALVDHYIPAEQIEATAEVLRWLERQNIEKQHSEML | soluble
MSLSIYSVGRWICRSYFRLFFKVEVIGASRIPDEGGLLLCCNHFSNYDPPFVGSFFPRKVRFMAKEELFRFKPLQSLMMAVGAFPVRRGAGDKQALKVGLKLLKEGETLGIFPEGTRSKDGQIGKGLSGVGFFALRSDATVVPCAIVGKYRFFRKVRFVIGEPVPMEELKERKASAEEATEVIMKAIRKLHEQNQMSEGHHHHHH | soluble
MDSALFKTIALIGKHKNPDIVIPLLSLAEYLTDRGISVVLDSLTAAHISNSRYPILTLEEIGKQADLAIVLGGDGTMLNIARALVPFSVPLIGINQGRLGFLTDLTADTMHETLNDMLAGQFVVENRMLLTVEVTRNGESVFKELAFNDVVLHRGISSGMIELEVHINGEYVYSLRSDGLIIATPTGSTAYALSSGGPILHPGLNLMTLVPICPHTLSNRPIVIGADATIEIKVHFTTEIKIYTDSHSWFDLSEHDRVFIQRCPETIKLLHPVHHSYYRMLREKLGWSGILQKNSRLEHHHHHH | not soluble
